The values that follow come from paper PMC9482650, “Quantitative fragmentomics allow affinity mapping of interactomes” (Nature Communications, 2022).

Some targets named below: GRASP, Q7Z6J2; PARD3_3, Q8TEW0; DLG4_2, P78352; SCRIB_1, Q14160; LDB3, O75112; FRMPD3, Q5JV73; DLG1_2, Q12959; MAGI2_2, Q86UL8; GRIP2_7, Q9C0E4; PDLIM1, O00151.
Holding throughout (assay): holdup assay
Common to all, as to parameters: key: below the threshold = too weak to quantify, mostly under pKd 3.1 to 4
Holding throughout (settings): plain residues with an end cap or a label only (N-terminal biotin on a linker: ado-ado)

Another assay concerns the target T1, DFNB31_2, Q9P202.
T1 sequence (Q9P202 274-371, limits assumed, looked up): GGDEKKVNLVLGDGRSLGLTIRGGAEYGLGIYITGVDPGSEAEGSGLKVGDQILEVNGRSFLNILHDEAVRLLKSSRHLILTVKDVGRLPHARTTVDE

The target in the next assay is T2, SNTA1, Q13424.
T2 sequence (Q13424 82-180, limits assumed, looked up): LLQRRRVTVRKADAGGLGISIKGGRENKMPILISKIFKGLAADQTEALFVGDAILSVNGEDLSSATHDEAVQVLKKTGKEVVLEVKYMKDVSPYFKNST

In a further assay the target is T3, PDZD7_3, Q9H5P4.
T3 sequence (Q9H5P4 857-944, limits assumed, looked up): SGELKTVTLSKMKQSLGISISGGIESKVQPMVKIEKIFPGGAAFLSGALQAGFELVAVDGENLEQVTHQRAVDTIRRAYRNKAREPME

The next assay addresses T4, DFNB31_1, Q9P202.
T4 sequence (Q9P202 135-233, limits assumed, looked up): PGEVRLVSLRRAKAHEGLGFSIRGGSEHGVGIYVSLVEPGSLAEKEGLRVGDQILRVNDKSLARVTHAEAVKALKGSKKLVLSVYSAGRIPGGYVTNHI

For another assay, the target named is T5, DVL3, Q92997.
T5 sequence (Q92997 244-331, limits assumed, looked up): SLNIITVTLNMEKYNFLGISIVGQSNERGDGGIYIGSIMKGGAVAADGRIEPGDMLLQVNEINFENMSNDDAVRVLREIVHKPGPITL

For a further assay, the target named is T6, PTPN13_1, Q12923.
T6 sequence (Q12923 1088-1188, limits assumed, looked up): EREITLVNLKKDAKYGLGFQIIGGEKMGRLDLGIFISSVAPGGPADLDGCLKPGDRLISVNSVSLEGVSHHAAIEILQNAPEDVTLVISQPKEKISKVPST

For another assay, the target named is T7, LIN7A, O14910.
T7 sequence (O14910 103-200, limits assumed, looked up): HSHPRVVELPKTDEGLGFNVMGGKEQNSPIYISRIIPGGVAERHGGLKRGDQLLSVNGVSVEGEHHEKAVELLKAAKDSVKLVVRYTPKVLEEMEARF

Another assay addresses T8, HTRA3, P83110.
T8 sequence (P83110 354-453, limits assumed, looked up): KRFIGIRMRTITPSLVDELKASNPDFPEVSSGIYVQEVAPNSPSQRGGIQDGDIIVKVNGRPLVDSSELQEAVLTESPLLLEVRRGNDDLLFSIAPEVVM

Another assay has as its target T9, DFNB31_3, Q9P202.
T9 sequence (Q9P202 811-907, limits assumed, looked up): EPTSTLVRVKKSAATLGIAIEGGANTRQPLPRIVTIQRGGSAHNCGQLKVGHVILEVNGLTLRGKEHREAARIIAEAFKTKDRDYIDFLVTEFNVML

For another assay, the target named is T10, GRIP1_4, Q9Y3R0.
T10 sequence (Q9Y3R0 467-571, limits assumed, looked up): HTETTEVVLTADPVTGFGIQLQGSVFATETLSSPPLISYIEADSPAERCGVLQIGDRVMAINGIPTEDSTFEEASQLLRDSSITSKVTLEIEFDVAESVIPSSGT

Another assay deals with T11, TIAM2, Q8IVF5.
T11 sequence (Q8IVF5 885-986, limits assumed, looked up): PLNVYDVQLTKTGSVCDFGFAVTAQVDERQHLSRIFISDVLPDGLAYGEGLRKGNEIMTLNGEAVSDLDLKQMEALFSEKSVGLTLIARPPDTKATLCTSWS

The next assay addresses T12, APBA1_1, Q02410.
T12 sequence (Q02410 651-752, limits assumed, looked up): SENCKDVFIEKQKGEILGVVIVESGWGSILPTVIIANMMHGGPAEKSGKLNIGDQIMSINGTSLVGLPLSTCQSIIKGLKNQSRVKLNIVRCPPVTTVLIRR

For a further assay, the target named is T13, LIN7B, Q9HAP6.
T13 sequence (Q9HAP6 88-185, limits assumed, looked up): T7 sequence (O14910 103-200, limits assumed, looked up) with S2A, V20I, I35V, E42D, H65Q, K77Q, D78G, K89R

For the next assay, the target named is T14, CARD11, Q9BXL7.
T14 sequence (Q9BXL7 662-765, limits assumed, looked up): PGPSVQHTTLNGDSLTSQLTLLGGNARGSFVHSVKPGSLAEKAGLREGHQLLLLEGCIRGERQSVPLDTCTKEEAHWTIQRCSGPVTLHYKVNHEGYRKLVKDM

Substitutions are numbered along the chain they refer to.

LDB3, O75112, sequence (O75112 1-94): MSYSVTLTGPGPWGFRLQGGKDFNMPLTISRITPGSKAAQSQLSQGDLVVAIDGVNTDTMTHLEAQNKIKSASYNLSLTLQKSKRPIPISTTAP
DLG1_2, Q12959, sequence (Q12959 314-412): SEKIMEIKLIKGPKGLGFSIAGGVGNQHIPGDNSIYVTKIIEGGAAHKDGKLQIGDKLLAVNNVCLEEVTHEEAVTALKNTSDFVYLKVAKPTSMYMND
FRMPD3, Q5JV73, sequence (Q5JV73 12-100): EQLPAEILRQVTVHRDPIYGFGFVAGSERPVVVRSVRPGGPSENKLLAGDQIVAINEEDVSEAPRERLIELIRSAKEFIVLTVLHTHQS
PDLIM1, O00151, sequence (O00151 1-87): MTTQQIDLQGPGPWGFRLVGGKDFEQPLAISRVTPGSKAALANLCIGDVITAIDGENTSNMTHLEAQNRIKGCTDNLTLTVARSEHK
GRIP2_7, Q9C0E4, sequence (Q9C0E4 934-1023): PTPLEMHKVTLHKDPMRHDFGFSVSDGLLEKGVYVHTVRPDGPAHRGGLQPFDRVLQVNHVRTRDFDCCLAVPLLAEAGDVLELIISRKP
GRASP, Q7Z6J2, sequence (Q7Z6J2 96-193): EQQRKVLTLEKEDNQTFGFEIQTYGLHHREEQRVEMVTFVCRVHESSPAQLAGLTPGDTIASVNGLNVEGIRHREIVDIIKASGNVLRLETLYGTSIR
DLG4_2, P78352, sequence (P78352 155-259): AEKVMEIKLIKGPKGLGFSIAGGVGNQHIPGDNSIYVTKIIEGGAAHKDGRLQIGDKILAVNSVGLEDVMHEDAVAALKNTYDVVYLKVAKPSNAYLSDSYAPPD
MAGI2_2, Q86UL8, sequence (Q86UL8 410-522): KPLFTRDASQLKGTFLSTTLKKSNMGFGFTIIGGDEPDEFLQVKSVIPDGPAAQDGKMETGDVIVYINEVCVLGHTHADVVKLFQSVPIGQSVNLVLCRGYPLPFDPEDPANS
SCRIB_1, Q14160, sequence (Q14160 718-814): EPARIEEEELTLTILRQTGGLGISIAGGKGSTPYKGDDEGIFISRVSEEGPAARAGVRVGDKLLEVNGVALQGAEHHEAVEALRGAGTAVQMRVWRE
PARD3_3, Q8TEW0, sequence (Q8TEW0 582-685): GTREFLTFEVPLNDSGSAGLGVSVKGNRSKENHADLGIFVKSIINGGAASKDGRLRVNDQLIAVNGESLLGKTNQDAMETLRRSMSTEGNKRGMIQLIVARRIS

B1: ADGRA1, Q86SQ6 (peptide)
chain: TGPWKNETTV
Consider B1, for which the pKd entry in the assay with DFNB31_2, Q9P202 is “below the threshold”; with GRASP, Q7Z6J2 it was “below the threshold”; with PARD3_3, Q8TEW0, “below the threshold”; with SNTA1, Q13424, 4.59; with PDZD7_3, Q9H5P4 it was 4.9; in the assay with DLG4_2, P78352, 5.08. Besides, the pKd with DFNB31_1, Q9P202 is 3.73; with DVL3, Q92997, “below the threshold”; in the assay with PTPN13_1, Q12923, “below the threshold”; with SCRIB_1, Q14160, 4.34; with LDB3, O75112, “below the threshold”; with FRMPD3, Q5JV73 it was “below the threshold”. Moreover, the pKd with LIN7A, O14910 was 3.86; with DLG1_2, Q12959 it was 5.33; in the assay with HTRA3, P83110, “below the threshold”; in the assay with DFNB31_3, Q9P202, “below the threshold”; with GRIP1_4, Q9Y3R0, “below the threshold”; with MAGI2_2, Q86UL8 it was 5.17. The pKd entry is “below the threshold” with GRIP2_7, Q9C0E4; “below the threshold” with PDLIM1, O00151; “below the threshold” with TIAM2, Q8IVF5; “below the threshold” with APBA1_1, Q02410; 3.54 with LIN7B, Q9HAP6; “below the threshold” in the assay with CARD11, Q9BXL7.

B2: TNRC6A, Q8NDV7 (peptide)
chain: DHLGGGGESM
For the molecule B2, the negative-log Kd (pKd) entry is “below the threshold” in the assay with DFNB31_2, Q9P202; “below the threshold” with GRASP, Q7Z6J2; “below the threshold” with PARD3_3, Q8TEW0; “below the threshold” in the assay with SNTA1, Q13424; “below the threshold” with PDZD7_3, Q9H5P4; “below the threshold” with DLG4_2, P78352. Further, the negative logarithm of the Kd (pKd) entry is reported as “below the threshold” with DFNB31_1, Q9P202; “below the threshold” with DVL3, Q92997; “below the threshold” in the assay with PTPN13_1, Q12923; “below the threshold” in the assay with SCRIB_1, Q14160; “below the threshold” with LDB3, O75112; “below the threshold” in the assay with FRMPD3, Q5JV73. Further, the negative-log Kd (pKd) result with LIN7A, O14910 was “below the threshold”; with DLG1_2, Q12959 it was “below the threshold”; with HTRA3, P83110, “below the threshold”; with DFNB31_3, Q9P202, “below the threshold”; with GRIP1_4, Q9Y3R0, “below the threshold”; with MAGI2_2, Q86UL8 it was “below the threshold”. Also, the pKd entry with GRIP2_7, Q9C0E4 is reported as “below the threshold”; with PDLIM1, O00151, “below the threshold”; with TIAM2, Q8IVF5, “below the threshold”; in the assay with APBA1_1, Q02410, “below the threshold”; with LIN7B, Q9HAP6, “below the threshold”; with CARD11, Q9BXL7, “below the threshold”.

B3: GNG4, P50150 (peptide)
chain: REKKFFCTIL
Turning to B3, the pKd entry with DFNB31_2, Q9P202 was “below the threshold”; in the assay with GRASP, Q7Z6J2, 5.1; with PARD3_3, Q8TEW0, 4.27; with SNTA1, Q13424, 4.35; with PDZD7_3, Q9H5P4, 5.44; with DLG4_2, P78352, 3.95. For the same molecule, the negative-log Kd (pKd) in the assay with DFNB31_1, Q9P202 is 4.1; with DVL3, Q92997, 4.33; in the assay with PTPN13_1, Q12923, “below the threshold”; with SCRIB_1, Q14160, 5.33; in the assay with LDB3, O75112 it was “below the threshold”; with FRMPD3, Q5JV73, “below the threshold”. Besides, the pKd in the assay with LIN7A, O14910 was determined as 3.6; with DLG1_2, Q12959 it was 4.3; with HTRA3, P83110 it was 3.78; in the assay with DFNB31_3, Q9P202, 4.62; with GRIP1_4, Q9Y3R0, 3.56; with MAGI2_2, Q86UL8, 4.63. The pKd entry with GRIP2_7, Q9C0E4 is “below the threshold”; with PDLIM1, O00151, “below the threshold”; in the assay with TIAM2, Q8IVF5, 3.98; with APBA1_1, Q02410 it was “below the threshold”; in the assay with LIN7B, Q9HAP6, 3.97; in the assay with CARD11, Q9BXL7, 3.54.

B4: IGF1R, P08069 (peptide)
chain: ALPLPQSSTC
As for B4, the pKd result with DFNB31_2, Q9P202 is “below the threshold”; with GRASP, Q7Z6J2, 4.12; with PARD3_3, Q8TEW0, “below the threshold”; with SNTA1, Q13424, “below the threshold”; with PDZD7_3, Q9H5P4 it was “below the threshold”; with DLG4_2, P78352, 3.76. In addition, the pKd result with DFNB31_1, Q9P202 is “below the threshold”; with DVL3, Q92997, “below the threshold”; with PTPN13_1, Q12923 it was “below the threshold”; with SCRIB_1, Q14160, 3.8; in the assay with LDB3, O75112 it was “below the threshold”; with FRMPD3, Q5JV73, “below the threshold”. The negative logarithm of the Kd (pKd) entry is “below the threshold” in the assay with LIN7A, O14910; 3.5 in the assay with DLG1_2, Q12959; 4.24 with HTRA3, P83110; 3.59 in the assay with DFNB31_3, Q9P202; “below the threshold” with GRIP1_4, Q9Y3R0; “below the threshold” with MAGI2_2, Q86UL8. Further, the pKd result was “below the threshold” with GRIP2_7, Q9C0E4; “below the threshold” with PDLIM1, O00151; “below the threshold” with TIAM2, Q8IVF5; “below the threshold” with APBA1_1, Q02410; 3.86 in the assay with LIN7B, Q9HAP6; “below the threshold” in the assay with CARD11, Q9BXL7.

As usually defined, the pKd is the negative decadic logarithm of the Kd, by convention in mol/L.
